Laboratory results taken from patent US20250145711A1 (Janssen / Centocor, published 2025).
Numbering of substitutions follows the chain as printed. Numbers in names are those of the source.

B1: CD3B2030 (scFv)
scFv: QVQLVQSGAEVKKPGSSVKVSCKASGYTFTRSTMHWVKQAPGQGLEWIGYINPSSAYTNYNQKFQGRVTLTADKSTSTAYMELSSLRSEDTAVYYCASPQVHYDYNGFPYWGQGTLVTVSSGGSEGKSSGSGSESKSTGGSEIVLTQSPATLSASPGERVTLSCSASSSVSYMNWYQQKPGQAPRRWIYDSSKLASGVPARFSGSGSGRDYTLTISSLEPEDFAVYYCQQWSRNPPTFGGGTKVEIK
B2: CD3B2089 N106F (scFv)
scFv: B1 scFv with K38R, I48M, N61A, N106F
B3: CD3B2051 N106K (scFv)
scFv: B1 scFv with I48M, N106K, W187L
B4: CD3B2089 N106S (scFv)
scFv: B1 scFv with K38R, I48M, N61A, N106S
B5: CD3B2089 (scFv)
scFv: B1 scFv with K38R, I48M, N61A
B6: CD3B2051 N106V (scFv)
scFv: B1 scFv with I48M, N106V, W187L
B7: CD3B2089 N106I (scFv)
scFv: B1 scFv with K38R, I48M, N61A, N106I
B8: CD3B2051 N106S (scFv)
scFv: B1 scFv with I48M, N106S, W187L
B9: CD3B2030 N106R (scFv)
scFv: B1 scFv with N106R
B10: CD3B2051 N106H (scFv)
scFv: B1 scFv with I48M, N106H, W187L
B11: CD3B2089 N106R (scFv)
scFv: B1 scFv with K38R, I48M, N61A, N106R
B12: CD3B2051 (scFv)
scFv: B1 scFv with I48M, W187L
B13: CD3B2051 N106E (scFv)
scFv: B1 scFv with I48M, N106E, W187L
B14: CD3B2030 N106Q (scFv)
scFv: B1 scFv with N106Q
notes: also called CD3B2030 NtoQ
B15: CD3B2089 N106E (scFv)
scFv: B1 scFv with K38R, I48M, N61A, N106E
B16: CD3B2051 N106P (scFv)
scFv: B1 scFv with I48M, N106P, W187L
B17: CD3B2089 N106T (scFv)
scFv: B1 scFv with K38R, I48M, N61A, N106T
B18: CD3B2051 N106R (scFv)
scFv: B1 scFv with I48M, N106R, W187L
B19: CD3B2030 N106S (scFv)
scFv: B1 scFv with N106S
B20: CD3B2051 N106A (scFv)
scFv: B1 scFv with I48M, N106A, W187L
B21: CD3B2051 N106G (scFv)
scFv: B1 scFv with I48M, N106G, W187L

What follows are binders tested against T1, TRCW5 antigen (CD3δε-Fc-Avi) (biotinylated (site not stated)) (assay: binding after heat).
T1 construct: also called recombinant CD3
T1 sequence (chain, as listed by the source mutant limits assumed): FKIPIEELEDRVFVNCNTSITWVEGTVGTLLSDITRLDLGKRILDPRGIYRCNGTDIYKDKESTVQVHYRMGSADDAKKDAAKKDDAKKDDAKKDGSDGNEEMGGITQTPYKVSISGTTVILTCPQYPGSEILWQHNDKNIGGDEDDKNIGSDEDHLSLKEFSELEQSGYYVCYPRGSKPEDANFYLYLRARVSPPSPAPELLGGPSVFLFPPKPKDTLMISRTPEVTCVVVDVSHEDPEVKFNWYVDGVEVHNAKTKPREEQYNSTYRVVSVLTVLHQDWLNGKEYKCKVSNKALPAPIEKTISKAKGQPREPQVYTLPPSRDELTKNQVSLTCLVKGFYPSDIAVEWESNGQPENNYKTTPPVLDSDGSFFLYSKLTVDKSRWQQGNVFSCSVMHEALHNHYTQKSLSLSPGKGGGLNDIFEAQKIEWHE

% Retained 55° C. [%] | % Retained 60° C. [%] | % Retained 65° C. [%] | Binder
104 | 102 | 41.3 | B1
113 | 101 | 36.2 | B2
116 | 91.3 | 4 | B3
102 | 90.2 | 5.4 | B4
104 | 109 | 15.1 | B5
54.9 | 1.4 | 0.7 | B6
40.6 | 2.5 | 0.9 | B7
101 | 70.9 | 1.5 | B8
107 | 104 | 53.8 | B9
103 | 84.2 | 9 | B10
102 | 103 | 60.4 | B11
104 | 95 | 10.9 | B12
78.4 | 15.4 | 0.5 | B13
110 | 97.5 | 72.3 | B14
113 | 108 | 33.2 | B15
87.7 | 32.6 | 0.2 | B16
108 | 76.7 | 1.4 | B17
101 | 74.5 | 8.4 | B18
64.6 | 19 | 0.6 | B19
98.9 | 97 | 33.3 | B20
98.9 | 33.1 | 1.5 | B21

These binders were tested against T1, TRCW5 antigen (CD3δε-Fc-Avi) (assay: ELISA after heat).

% Retained 55° C. [%] | % Retained 60° C. [%] | % Retained 65° C. [%] | Binder
106 | 101 | 36 | B1
111 | 108 | 41 | B5
109 | 94 | 32 | B12
111 | 105 | 55 | B14

What follows are binders tested against T2, CD3 on primary human pan T cells (human, UniProt P07766 23-207) (assay: flow cytometry, pan T-cells).
T2 construct: on cells it stands in the TCR/CD3 complex; also called Pan T-cells (CD3-positive); endogenous CD3
T2 sequence (P07766 23-207 limits assumed): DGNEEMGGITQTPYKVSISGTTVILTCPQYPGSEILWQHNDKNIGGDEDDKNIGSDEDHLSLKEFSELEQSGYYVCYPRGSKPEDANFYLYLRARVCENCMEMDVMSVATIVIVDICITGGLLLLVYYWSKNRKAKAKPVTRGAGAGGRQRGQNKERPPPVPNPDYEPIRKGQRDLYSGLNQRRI

% Binding retained on T-cells, 55° C. [fraction] | % Binding retained on T-cells, 60° C. [fraction] | % Binding retained on T-cells, 65° C. [fraction] | % Binding retained on T-cells, RT [fraction] | Binder
1.05 | 1.1 | 0.757 | 1 | B1
1.08 | 0.494 | 0.111 | 1 | B5

What follows are binders tested against T1, TRCW5 antigen (CD3δε-Fc-Avi) (assay: ELISA).

EC50 [nM] | Binder
8.84 | B1
10.1 | B2
11.4 | B3
10 | B4
8.79 | B5
15.2 | B6
17.9 | B7
11.1 | B8
10.6 | B9
10.9 | B10
11.2 | B11
8.73 | B12
8.05 | B13
10 | B14
10.3 | B15
10.9 | B16
11.1 | B17
11.2 | B18
19.1 | B19
12.1 | B20
13.8 | B21
